Results: patent US20180186871A1
Like-named read-outs stand apart in the source and are kept apart here.

How the values were obtained:
Experiment in all cases: cell-based or functional assay
murine IL-11 (mouse) [1] = target: T1, murine IL-11 (mouse) (UniProt P47873)
T1 sequence (looked up): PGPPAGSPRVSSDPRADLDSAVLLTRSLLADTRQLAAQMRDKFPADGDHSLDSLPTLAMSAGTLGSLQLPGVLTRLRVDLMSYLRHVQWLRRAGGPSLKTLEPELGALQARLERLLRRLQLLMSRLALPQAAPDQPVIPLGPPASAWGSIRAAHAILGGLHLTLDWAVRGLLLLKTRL

murine IL-11 (mouse) [2] = target: T1, murine IL-11 (mouse); remark: listed apart in the source
[3] = target: IL-11:IL-11Rα fusion protein
IL-11:IL-11Rα fusion protein, sequence (chain, as listed by the source limits assumed): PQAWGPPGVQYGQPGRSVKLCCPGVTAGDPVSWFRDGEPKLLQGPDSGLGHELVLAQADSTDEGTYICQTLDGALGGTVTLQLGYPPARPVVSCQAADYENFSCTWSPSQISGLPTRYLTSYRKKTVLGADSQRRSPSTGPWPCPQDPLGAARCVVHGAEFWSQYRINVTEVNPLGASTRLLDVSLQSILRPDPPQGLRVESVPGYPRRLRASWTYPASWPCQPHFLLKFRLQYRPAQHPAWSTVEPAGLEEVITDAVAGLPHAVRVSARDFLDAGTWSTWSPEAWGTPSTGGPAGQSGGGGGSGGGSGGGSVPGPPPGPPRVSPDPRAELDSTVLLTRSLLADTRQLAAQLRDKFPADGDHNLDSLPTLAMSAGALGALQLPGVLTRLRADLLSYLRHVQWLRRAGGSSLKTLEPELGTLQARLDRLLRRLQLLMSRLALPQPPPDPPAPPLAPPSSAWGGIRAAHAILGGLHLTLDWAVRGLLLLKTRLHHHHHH

human IL-11 (human) = human IL-11 (human) (UniProt P20809)

percentage of αSMA-positive (activated) fibroblasts, mouse atrial fibroblasts + TGFβ1 (murine IL-11 (mouse) [1]): 43%
percentage of αSMA-positive (activated) fibroblasts, mouse atrial fibroblasts + TGFβ1, normalised to unstimulated (=1) (fold of unstimulated) (murine IL-11 (mouse) [1]): 1.44
percentage of αSMA-positive (activated) fibroblasts, mouse atrial fibroblasts + TGFβ1 (murine IL-11 (mouse) [2]): 39.4%
percentage of αSMA-positive (activated) fibroblasts, mouse atrial fibroblasts + TGFβ1, normalised to unstimulated (=1) (fold of unstimulated) (murine IL-11 (mouse) [2]): 1.24
percentage of αSMA-positive (activated) fibroblasts, human atrial fibroblasts + hyper IL-11 (0.2 ng/ml) [3]: 33.8%
percentage of αSMA-positive (activated) fibroblasts, human atrial fibroblasts + hyper IL-11 (0.2 ng/ml), normalised to unstimulated (=1) (fold of unstimulated) [3]: 1.28
percentage of αSMA-positive (activated) fibroblasts, human atrial fibroblasts + TGFβ1 (human IL-11 (human)): 28.3%
percentage of αSMA-positive (activated) fibroblasts, human atrial fibroblasts + TGFβ1, normalised to unstimulated (=1) (fold of unstimulated) (human IL-11 (human)): 0.99
percentage of αSMA-positive (activated) fibroblasts, human atrial fibroblasts + TGFβ1, relative to unstimulated (human IL-11 (human)): 0.89 times
Substance: Monoclonal Mouse IgG2A anti-human IL-11 antibody, Clone #22626, Catalog No. MAB218 (R&D Systems)
